Data set [1] concerns the target T1, PpMYB8 (Pinus pinaster, UniProt D7GLD4 1-534). In words: EMSA; EMSA buffer, salt, pH and temperature not given in material (electrophoresis as in Rueda-López et al. 2008). The settings on record: protein: recombinant; label: 5'-biotin. A general note: Mobility shift assays separate free from complexed probe on a gel.
Data set [2] concerns the target T1, PpMYB8. In words: EMSA; shift reduced by unlabeled probe; EMSA buffer, salt, pH and temperature not given in material (electrophoresis as in Rueda-López et al. 2008). The note with it: protein: recombinant; label: 5'-biotin.

These results are taken from publication PMC7260716, “Transcriptional analysis of arogenate dehydratase genes identifies a link between phenylalanine biosynthesis and lignin biosynthesis”.

T1 sequence (D7GLD4 entry or part of it): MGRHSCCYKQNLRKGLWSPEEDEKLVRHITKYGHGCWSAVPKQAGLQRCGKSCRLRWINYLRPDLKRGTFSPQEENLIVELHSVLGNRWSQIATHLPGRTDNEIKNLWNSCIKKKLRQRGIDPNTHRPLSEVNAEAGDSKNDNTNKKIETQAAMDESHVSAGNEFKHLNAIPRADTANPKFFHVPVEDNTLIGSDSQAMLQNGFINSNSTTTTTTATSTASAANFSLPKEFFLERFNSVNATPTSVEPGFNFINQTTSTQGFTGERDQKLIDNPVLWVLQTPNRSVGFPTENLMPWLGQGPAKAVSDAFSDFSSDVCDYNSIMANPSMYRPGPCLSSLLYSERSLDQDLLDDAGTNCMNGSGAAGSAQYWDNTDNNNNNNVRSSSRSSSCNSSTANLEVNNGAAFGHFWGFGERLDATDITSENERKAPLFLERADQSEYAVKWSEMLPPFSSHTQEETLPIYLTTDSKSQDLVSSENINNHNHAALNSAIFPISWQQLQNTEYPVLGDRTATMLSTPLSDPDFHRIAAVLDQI

B1: probe A1 (PADT-A 225-329) (dsDNA)
DNA 1: TAACTTGCGCGGGTGTTTACACACCTAACCACTCCGGAGCTTCCATGCTTCATCCACGAGTCAGAGGGGCCTTTCCTCCAACCACCCTAGATCAGCATGAGCTAT
DNA 2: ATAGCTCATGCTGATCTAGGGTGGTTGGAGGAAAGGCCCCTCTGACTCGTGGATGAAGCATGGAAGCTCCGGAGTGGTTAGGTGTGTAAACACCCGCGCAAGTTA
B1: in the data set with PpMYB8 [1], the binding result is given as “no binding”.

B2: probe D2 (PADT-D 192-318) (dsDNA)
DNA 1: GCTGGTGAGAAGGGCCAAACCAAAAAAAAACCAAACGAAATCACAGCGTACGATCTAACTAACCGTGTTGAATAGTCCCGTGACGTAGCCGCCGTAATGTGCAACAACCCACCATGGGATGGAGCAG
DNA 2: CTGCTCCATCCCATGGTGGGTTGTTGCACATTACGGCGGCTACGTCACGGGACTATTCAACACGGTTAGTTAGATCGTACGCTGTGATTTCGTTTGGTTTTTTTTTGGTTTGGCCCTTCTCACCAGC
Regarding B2, the binding result with PpMYB8 [1] is “no binding”.

B3: probe A2 (PADT-A 281-370) (dsDNA)
DNA 1: ACAACAGACTGGTAAGGCACACGTGCTTCCACGAGATCCACTAACTTGCGCGGGTGTTTACACACCTAACCACTCCGGAGCTTCCATGCT
DNA 2: AGCATGGAAGCTCCGGAGTGGTTAGGTGTGTAAACACCCGCGCAAGTTAGTGGATCTCGTGGAAGCACGTGTGCCTTACCAGTCTGTTGT
As for B3, the binding result with PpMYB8 [2] is “binds”.
